Source: patent publication US20160083473A1 (NUMAB THERAPEUTICS, published 2016)

T1: cynomolgus IL23R Fc chimera (cynomolgus monkey, UniProt G7NWY5 24-353)
T1 construct: source of the cynomolgus chimera is not clearly stated; also called cyno IL23R; not shown: Fc part of the chimera
T1 sequence: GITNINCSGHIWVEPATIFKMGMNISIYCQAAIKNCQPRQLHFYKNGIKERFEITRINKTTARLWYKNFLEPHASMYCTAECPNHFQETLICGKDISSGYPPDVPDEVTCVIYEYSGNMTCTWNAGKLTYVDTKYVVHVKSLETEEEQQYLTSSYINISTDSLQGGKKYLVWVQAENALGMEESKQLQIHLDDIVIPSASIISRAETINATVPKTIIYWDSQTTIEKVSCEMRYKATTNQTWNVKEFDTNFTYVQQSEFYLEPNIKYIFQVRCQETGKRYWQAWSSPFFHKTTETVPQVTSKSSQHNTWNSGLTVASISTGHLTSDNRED

T2: mouse IL23R Fc chimera (R&D Systems, Cat. No. 1686-MR-050) (mouse, UniProt Q8K4B4 24-372)
T2 construct: bought; Fc part of the bought chimera not given
T2 sequence (looked up): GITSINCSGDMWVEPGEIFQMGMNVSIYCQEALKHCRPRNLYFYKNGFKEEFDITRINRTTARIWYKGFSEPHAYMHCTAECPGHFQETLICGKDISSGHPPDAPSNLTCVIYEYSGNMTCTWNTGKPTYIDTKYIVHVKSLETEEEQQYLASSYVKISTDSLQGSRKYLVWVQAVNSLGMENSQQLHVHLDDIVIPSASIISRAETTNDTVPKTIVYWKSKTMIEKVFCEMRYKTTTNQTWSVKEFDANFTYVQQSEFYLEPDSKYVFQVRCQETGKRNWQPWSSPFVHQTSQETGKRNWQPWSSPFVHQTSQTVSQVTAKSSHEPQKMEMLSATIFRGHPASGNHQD

T3: human heterodimeric single-chain CD3γδ extracellular domain (produced in-house) (human)
T3 chain 1: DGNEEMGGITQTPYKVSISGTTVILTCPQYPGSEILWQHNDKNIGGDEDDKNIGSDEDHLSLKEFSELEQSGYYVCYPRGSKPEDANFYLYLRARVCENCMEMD
T3 chain 2: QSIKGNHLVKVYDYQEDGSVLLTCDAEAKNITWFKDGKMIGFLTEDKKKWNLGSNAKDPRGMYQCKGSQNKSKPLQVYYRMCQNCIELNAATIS


Columns and labels:
[1] = target: T4, recombinant human IL23R Fc chimera (R&D Systems, Cat. No. 1400-IR-050) (human, UniProt Q5VWK5 24-353); test: SPR, IL23R Fc chimera captured by anti-human IgG Fc, scFv injected
T4 construct: bought
Experimental: (§1) Binding affinities of anti-IL23R scFvs were measured by surface plasmon resonance (SPR) using a MASS-1 SPR instrument (Sierra Sensors). […] After immobilization, 1 ug/ml recombinant human IL23R Fc chimera (R&D Systems, Cat. No. 1400-IR-050) was captured by the anti-human IgG antibody while a second immobilized channel served as a control where the capture was replaced by buffer. Two-fold serial dilutions of human scFvs ranging from 180 to 2.81 nM were injected into both flow cells for 3 min and dissociation of the scFvs from the chimera on the sensor chip was allowed to proceed for 700 sec. After each injection cycle, surfaces were regenerated with two 1 min injections of 10 mM glycine-HCl pH 1.5. In a similar manner the affinities for cynomolgus and mouse IL23R Fc chimera (R&D Systems, Cat. No. 1686-MR-050) was measured. The apparent dissociation (kd) and association (ka) rate constants and the apparent dissociation equilibrium constant (KD) were calculated with the MASS-1 analysis software (Analyzer, Sierra Sensors) using one-to-one Langmuir binding model.

[2] = target: T1, cynomolgus IL23R Fc chimera; test: as above
Experimental: as §1

[3] = target: T2, mouse IL23R Fc chimera (R&D Systems, …); test: as above
Experimental: as §1

[4] = target: T3, human heterodimeric single-chain CD3γδ …; test: SPR, human single-chain CD3 ECD immobilised by amine coupling, scDb injected

| Kd [1] [nM] | koff [1] [s⁻¹] | kon [1] [M⁻¹ s⁻¹] | Kd [2] [nM] | koff [2] [s⁻¹] | kon [2] [M⁻¹ s⁻¹] | Kd [3] [nM] | koff [3] [s⁻¹] | kon [3] [M⁻¹ s⁻¹] | Kd [4] [nM] | koff [4] [s⁻¹] | kon [4] [M⁻¹ s⁻¹] | Binder |
| --- | --- | --- | --- | --- | --- | --- | --- | --- | --- | --- | --- | --- |
| 0.116 | 0.000259 | 2.24e+06 | 0.124 | 0.000361 | 2.92e+06 | 2.21 | 0.00418 | 1.89e+06 | – | – | – | humanized anti-IL23R scFv 14-11-D07-sc01 (scFv, V domains shown, tested as a single-chain Fv; CDR graft on a Vk1/VH3 human acceptor framework) VH: EVQLVESGGGLVQPGGSLRLSCAASGIDFNSNYYMCWVRQAPGKGLEWIGCIYVGSHVNTYYANWAKGRFTISRDNSKNTVYLQMNSLRAEDTAVYYCATSGSSVLYFKFWGQGTLVTVSS VL: DIQMTQSPSSLSASVGDRVTITCQASENIYSFLAWYQQKPGKAPKLLIYSASKLAAGVPSRFSGSGSGTDFTLTISSLQPEDFATYYCQQTNRYSNPDIYNVFGQGTKLTVLG |
| – | – | – | – | – | – | – | – | – | 11.6 | 0.00126 | 109000 | PRO165, bispecific anti-IL23R x CD3ε single-chain diabody (bispecific antibody, VL(anti-IL23R 14-11-D07-sc01)-G4S-VH(anti-CD3 clone 6)-(G4S)4-VL(anti-CD3 clone 6)-G4S-VH(anti-IL23R 14-11-D07-sc01); also called scDb) DIQMTQSPSSLSASVGDRVTITCQASENIYSFLAWYQQKPGKAPKLLIYSASKLAAGVPSRFSGSGSGTDFTLTISSLQPEDFATYYCQQTNRYSNPDIYNVFGQGTKLTVLGGGGGSEVQLVESGGGLVQPGGSLRLSCAASGFPLSSYAMIWVRQAPGKGLEWIGMILRAGNIYYASWVKGRFTISRDNSKNTVYLQMNSLRAEDTAVYYCARRHYNREGYPIGIGDLWGQGTLVTVSSGGGGSGGGGSGGGGSGGGGSDIQMTQSPSSLSASVGDRVTITCQSSESVYNNKRLSWYQQKPGKAPKLLIYTASSLASGVPSRFSGSGSGTDFTLTISSLQPEDFATYYCQGEFTCSNADCFTFGQGTKLTVLGGGGGSEVQLVESGGGLVQPGGSLRLSCAASGIDFNSNYYMCWVRQAPGKGLEWIGCIYVGSHVNTYYANWAKGRFTISRDNSKNTVYLQMNSLRAEDTAVYYCATSGSSVLYFKFWGQGTLVTVSS |
